Data taken from US20230158141A1 (YAFEI SHANGHAI BIOLOG MEDICINE SCIENCE AND TECHNOLOGY, published 2023).
Numbering of substitutions follows the chain as printed. In names and notes the source's numbering stands.

B1: anti-PD-1 antibody 1 heavy chain G50C (antibody, human IgG4 S228P, kappa, V domains shown)
VH: QVQLVQSGVEVKKPGASVKVSCKASGYTFTNYYMYWVRQAPGQGLEWMGCINPSNGGTNFNEKFKNRVTLTTDSSTTTAYMELKSLQFDDTAVYYCARRDYRFDMGFDYWGQGTTVTVSS
VL: EIVLTQSPATLSLSPGERATLSCRASKGVSTSGYSYLHWYQQKPGQAPRLLIYLASYLESGVPARFSGSGSGTDFTLTISSLEPEDFAVYYCQHSRDLPLTFGGGTKVEIKR
B2: anti-PD-1 antibody 1 heavy chain S54C (antibody, human IgG4 S228P, kappa, V domains shown)
VH: B1 VH with C50G, S54C
VL: B1 VL
B3: anti-PD-1 antibody 1 heavy chain G56C (antibody, human IgG4 S228P, kappa, V domains shown)
VH: B1 VH with C50G, G56C
VL: B1 VL
B4: anti-PD-1 antibody 1 heavy chain G106C (antibody, human IgG4 S228P, kappa, V domains shown)
VH: B1 VH with C50G, G106C
VL: B1 VL
B5: anti-PD-1 antibody 1 heavy chain G57C (antibody, human IgG4 S228P, kappa, V domains shown)
VH: B1 VH with C50G, G57C
VL: B1 VL
B6: anti-PD-1 antibody 1 heavy chain T58C (antibody, human IgG4 S228P, kappa, V domains shown)
VH: B1 VH with C50G, T58C
VL: B1 VL
B7: anti-PD-1 antibody 1 heavy chain T30C (antibody, human IgG4 S228P, kappa, V domains shown)
VH: B1 VH with T30C, C50G
VL: B1 VL
B8: anti-PD-1 antibody 2 heavy chain G33C (antibody, human IgG4 S228P, kappa, V domains shown)
VH: QVQLVESGGGVVQPGRSLRLDCKASGITFSNSCMHWVRQAPGKGLEWVAVIWYDGSKRYYADSVKGRFTISRDNSKNTLFLQMNSLRAEDTAVYYCATNDDYWGQGTLVTVSS
VL: EIVLTQSPATLSLSPGERATLSCRASQSVSSYLAWYQQKPGQAPRLLIYDASNRATGIPARFSGSGSGTDFTLTISSLEPEDFAVYYCQQSSNWPRTFGQGTKVEIKR
B9: anti-PD-1 antibody 2 heavy chain S30C (antibody, human IgG4 S228P, kappa, V domains shown)
VH: B8 VH with S30C, C33G
VL: B8 VL
B10: anti-PD-1 antibody 2 heavy chain S56C (antibody, human IgG4 S228P, kappa, V domains shown)
VH: B8 VH with C33G, S56C
VL: B8 VL
B11: anti-PD-1 antibody 2 heavy chain S63C (antibody, human IgG4 S228P, kappa, V domains shown)
VH: B8 VH with C33G, S63C
VL: B8 VL
B12: anti-PD-1 antibody 2 heavy chain S32C (antibody, human IgG4 S228P, kappa, V domains shown)
VH: B8 VH with S32C, C33G
VL: B8 VL
B13: anti-PD-1 antibody 2 heavy chain G66C (antibody, human IgG4 S228P, kappa, V domains shown)
VH: B8 VH with C33G, G66C
VL: B8 VL
B14: anti-PD-1 antibody 2 heavy chain G55C (antibody, human IgG4 S228P, kappa, V domains shown)
VH: B8 VH with C33G, G55C
VL: B8 VL
B15: anti-CTLA-4 antibody light chain A25C (antibody, human IgG1, kappa, V domains shown)
VH: QVQLVESGGGVVQPGRSLRLSCAASGFTFSSYTMHWVRQAPGKGLEWVTFISYDGNNKYYADSVKGRFTISRDNSKNTLYLQMNSLRAEDTAIYYCARTGWLGPFDYWGQGTLVTVSS
VL: not shown
B16: anti-CTLA-4 antibody light chain S32C (antibody, human IgG1, kappa, V domains shown)
VH: B15 VH
VL: not shown
B17: anti-CTLA-4 antibody light chain G30C (antibody, human IgG1, kappa, V domains shown)
VH: B15 VH
VL: not shown
B18: anti-CTLA-4 antibody light chain S31C (antibody, human IgG1, kappa, V domains shown)
VH: B15 VH
VL: not shown
B19: anti-CTLA-4 antibody light chain G51C (antibody, human IgG1, kappa, V domains shown)
VH: B15 VH
VL: not shown
B20: anti-CTLA-4 antibody light chain S26C (antibody, human IgG1, kappa, V domains shown)
VH: B15 VH
VL: not shown
notes: also called CTLA-4-Ser26Cys
B21: anti-CTLA-4 antibody light chain S28C (antibody, human IgG1, kappa, V domains shown)
VH: B15 VH
VL: not shown
B22: anti-CTLA-4 antibody light chain G93C (antibody, human IgG1, kappa, V domains shown)
VH: B15 VH
VL: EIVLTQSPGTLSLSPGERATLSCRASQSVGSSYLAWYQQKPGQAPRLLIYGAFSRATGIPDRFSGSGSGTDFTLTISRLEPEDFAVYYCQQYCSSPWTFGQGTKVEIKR
B23: anti-CTLA-4 antibody light chain G58C (antibody, human IgG1, kappa, V domains shown)
VH: B15 VH
VL: not shown
B24: anti-PD-1 antibody 2 HC Thr91Cys (antibody, human IgG4 S228P, kappa, V domains shown)
VH: B8 VH with C33G, T91C
VL: B8 VL
modifications: arm on Cys91 as named in each row
B25: anti-PD-1 antibody 2 HC Ser85Cys (antibody, human IgG4 S228P, kappa, V domains shown)
VH: B8 VH with C33G, S85C
VL: B8 VL
modifications: arm on Cys85 as named in each row
B26: anti-PD-1 antibody 2 HC Thr28Cys (antibody, human IgG4 S228P, kappa, V domains shown)
VH: B8 VH with T28C, C33G
VL: B8 VL
modifications: arm on Cys28 as named in each row
B27: anti-PD-1 antibody 2 HC Thr78Cys (antibody, human IgG4 S228P, kappa, V domains shown)
VH: B8 VH with C33G, T78C
VL: B8 VL
modifications: arm on Cys78 as named in each row
B28: anti-PD-1 antibody 2 HC Thr98Cys (antibody, human IgG4 S228P, kappa, V domains shown)
VH: B8 VH with C33G, T98C
VL: B8 VL
modifications: arm on Cys98 as named in each row
B29: anti-PD-1 antibody 2 HC Ser75Cys (antibody, human IgG4 S228P, kappa, V domains shown)
VH: B8 VH with C33G, S75C
VL: B8 VL
modifications: arm on Cys75 as named in each row

Molecular target: PD-1 (UniProt Q15116 25-167, limits assumed)
Test: ELISA, OD mutant/OD WT; A=90-110%
Target sequence in this assay (Q15116 25-167 limits assumed): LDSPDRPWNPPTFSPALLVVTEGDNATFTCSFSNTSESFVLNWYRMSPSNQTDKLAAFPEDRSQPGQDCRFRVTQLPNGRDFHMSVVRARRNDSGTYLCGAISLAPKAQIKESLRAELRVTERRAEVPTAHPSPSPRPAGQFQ

binding activity (OD after mutation/OD wild type) | Binder
90 to 110% | B1
90 to 110% | B2
90 to 110% | B3
90 to 110% | B4
90 to 110% | B5
90 to 110% | B6
90 to 110% | B7
90 to 110% | B8
90 to 110% | B9
90 to 110% | B10
90 to 110% | B11
90 to 110% | B12
90 to 110% | B13
90 to 110% | B14

Molecular target: CTLA-4 (UniProt P16410 36-162, limits assumed)
Test: ELISA, OD mutant/OD WT; A=90-110%

Chain of CTLA-4 (P16410 36-162 limits assumed): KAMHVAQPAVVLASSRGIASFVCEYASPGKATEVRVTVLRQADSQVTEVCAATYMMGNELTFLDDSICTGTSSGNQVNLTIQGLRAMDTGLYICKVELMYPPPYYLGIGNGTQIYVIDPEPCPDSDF

binding activity (OD after mutation/OD wild type) | Binder
90 to 110% | B15
90 to 110% | B16
90 to 110% | B17
90 to 110% | B18
90 to 110% | B19
90 to 110% | B20
90 to 110% | B21
90 to 110% | B22
90 to 110% | B23

Molecular target: T1, PD-1 (UniProt Q15116 25-167, limits assumed)
Test: ELISA; S13 on the Cys
T1 sequence (Q15116 25-167 limits assumed): as the sequence (Q15116 25-167 limits assumed) above

binding activity, % of wild type | Binder
21.7% | B24
32.3% | B25
15% | B26
42.4% | B27
32.1% | B28
14.6% | B29

Molecular target: T1, PD-1
Test: ELISA; Cys mutant, no arm

binding activity, % of wild type | Binder
86% | B24
98.8% | B25
86.4% | B26
92.2% | B27
89.6% | B28
96.3% | B29

Molecular target: T1, PD-1
Test: ELISA; S9 on the Cys

binding activity, % of wild type | Binder
48.9% | B24
69.4% | B25
29.9% | B26
86.3% | B27
59.9% | B28
38.7% | B29
